Data from PMC8835842, “YdfD, a Lysis Protein of the Qin Prophage, Is a Specific Inhibitor of the IspG-Catalyzed Step in the MEP Pathway of Escherichia coli” (International Journal of Molecular Sciences, 2022).

B1: IspG-His (enzyme, E. coli BL21(DE3), UniProt P62620 1-372, looked up)
chain: MHNQAPIQRRKSTRIYVGNVPIGDGAPIAVQSMTNTRTTDVEATVNQIKALERVGADIVRVSVPTMDAAEAFKLIKQQVNVPLVADIHFDYRIALKVAEYGVDCLRINPGNIGNEERIRMVVDCARDKNIPIRIGVNAGSLEKDLQEKYGEPTPQALLESAMRHVDHLDRLNFDQFKVSVKASDVFLAVESYRLLAKQIDQPLHLGITEAGGARSGAVKSAIGLGLLLSEGIGDTLRVSLAADPVEEIKVGFDILKSLRIRSRGINFIACPTCSRQEFDVIGTVNALEQRLEDIITPMDVSIIGCVVNGPGEALVSTLGVTGGNKKSGLYEDGVRKDRLDNNDMIDQLEARIRAKASQLDEARRIDVQQVEK
notes: ispG amplified from the E. coli BL21(DE3) genome; also called His-tagged ispG; GcpE; source: E. coli BL21(DE3); coexpressed with YdfD constructs, in lysate; and purified (Ni-NTA, Superdex 200)
B2: YdfD (MBP tag cleaved) (natural protein, E. coli BL21(DE3), UniProt P29010 1-63, looked up)
chain: MNSAFVLVLTVFLVSGEPVDIAVSVHRTMQECMTAATEQKIPGNCYPVDKVIHQDNIEIPAGL
notes: YdfD, lysis protein of the Qin cryptic prophage, 63 amino acids; ydfD amplified from the E. coli BL21(DE3) genome; No truncation is told for this construct; source: E. coli BL21(DE3), purified as MBP-YdfD (amylose resin), MBP cleaved by PreScission protease; not shown: MBP, N-terminal, cleaved

What was measured:
YdfD (MBP tag cleaved) = molecular target: B2; experiment: ITC; IspG (1.1 mM) injected into YdfD in the cell, 2 μL injections at 120 s spacing, 25 °C, 20 mM Tris, 150 mM NaCl, pH 8.0; one-site binding fit; settings: both partners purified
IspG-His = molecular target: B1; experiment: as above; settings: both partners purified

Question: What does the source list for B1?
Answer: dH (YdfD (MBP tag cleaved)): 1.57 kcal/mol; stoichiometry N (YdfD (MBP tag cleaved)): 0.63

Question: For B2, which Kd (IspG-His) is on record?
Answer: 18.4 µM
